Patent US20190343963A1

Columns and labels:
IL-13 (human) [1] = molecular target: IL-13 (human) (UniProt P35225); test: competition ELISA; 1 h incubation
IL-13 (human) [2] = molecular target: IL-13 (human) (UniProt P35225); test: competition ELISA; 1 h incubation; remark: listed apart in the source
IL-13 (human) [3] = molecular target: IL-13 (human) (UniProt P35225); test: competition ELISA; 24 h incubation
IL-13 (human) [4] = molecular target: IL-13 (human) (UniProt P35225); test: competition ELISA; 24 h incubation; remark: listed apart in the source

IL-13 (human), sequence (P35225 35-146): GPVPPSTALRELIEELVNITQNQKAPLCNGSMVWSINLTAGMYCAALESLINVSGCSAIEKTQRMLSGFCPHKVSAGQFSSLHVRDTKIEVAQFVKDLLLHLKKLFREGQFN

Row | EC50 (IL-13 (human) [1]) | EC50 (IL-13 (human) [2]) | EC50 (IL-13 (human) [3]) | EC50 (IL-13 (human) [4]) | EC50 (IL-13 (human) [2]; Fab) | EC50 (IL-13 (human) [3]; Fab) | Substance
1 | 0.25 nM | 2.1 nM | 0.54 nM | 2.28 nM | – | – | CAT-354
2 | – | – | – | – | 3.56 nM | 4 nM | CAT-354 fab
